This passage reports fold reduction of normalised abundance against PfCoronin^WT-smHA results from publication doi:10.1101/2023.12.22.572193.

The target of the assay is PfCoronin^R100K/E107V-smHA (P. falciparum (Pikine isolate, SenP019.04)). In words: affinity purification with mass spectrometry.

In turn, “PfActin (from UniProt Q8I4X0 1-376) (natural protein)” showed a fold reduction of normalised abundance against PfCoronin^WT-smHA of 3 fold.
